By Kd is commonly meant the equilibrium constant for the complex coming apart. A lower Kd goes with tighter binding.

One data set has as its target TFIIIA zf1-3 (UniProt P03001 P03001:33-123). The data set is described as follows: EMSA; ambient temperature; complete 23 bp sequence not given. The settings on record: tags: first three zinc fingers of TFIIIA; label: 32P. An excerpt: An experiment was designed to determine whether the binding of this polypeptide to its recognition sequence, placed close to an active RNA polymerase promoter, would inhibit the activity of that promoter in vitro. The following experiments were done to provide such a test system. A 23 bp oligonucleotide (Liao, et al., 1992, supra) containing the 13 bp recognition sequence for zf1–3 was cloned into the polylinker region of plasmid pBluescript SK+ (Stratagene, La Jolla, Calif.), near the promoter sequence for T7 RNA polymerase. The parent plasmid was digested with the restriction enzyme EcoRV and, after dephosphorylation with calf intestinal alkaline phosphatase, the phosphorylated 23 bp oligonucleotide was inserted by ligation with T4 DNA ligase. The ligation product was used for transformation of DH5α *E. coli* cells. Clones harboring 23 bp inserts were identified by restriction digestion of miniprep DNA. The success of cloning was also verified by DNA sequence analysis. The DNA binding activity of the preparation of recombinant zf1–3 was also determined by gel mobility shift analysis with a 56 bp radiolabeled EcoRI/XhoI restriction fragment derived from the cone containing the binding site for zf1–3 and with the radiolabeled 23 bp oligonucleotide. Gel shift assays were done as described (Liao, et al., supra; Fried, et al., *Nucl. Acids., Res.,* 9:6505, 1981). […]
On the technique in general: In EMSA bound probe runs differently from free probe, usually more slowly.

Another data set has as its target (C7 finger)x3 (synthetic (Zif268 variant)). Put plainly: SPR. To be noted: hairpin.
In the next data set the target is MBP-C7 (synthetic (Zif268 variant, mouse), UniProt P08046). The data set is described as follows: EMSA; 0.1 mM ZnCl2, RT.
The next data set concerns the target Zif268 variant C7 (synthetic (Zif268 variant, mouse), UniProt P08046). Put plainly: SPR; 5-fold slower dissociation; Kd in FIG. 11 only. In general terms: In SPR one partner is held on a chip, and binding of the other changes the refractive index at the surface.
A further data set deals with Zif268 fingers 1-3 (Mus musculus, UniProt P08046 SEQ:1-91). Put plainly: SPR; zinc buffer (90 uM ZnCl2, 5 mM DTT); Kd from kon/koff.

Sequence of TFIIIA zf1-3 (P03001 33-123, one chain of several): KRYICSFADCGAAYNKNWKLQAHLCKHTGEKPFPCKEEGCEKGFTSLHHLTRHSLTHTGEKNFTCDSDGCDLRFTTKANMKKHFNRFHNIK
Sequence of (C7 finger)x3 (synthetic (Zif268 variant)) (chain, as listed by the source): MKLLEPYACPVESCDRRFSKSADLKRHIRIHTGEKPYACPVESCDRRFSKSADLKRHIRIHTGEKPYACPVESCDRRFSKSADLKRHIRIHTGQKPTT

B1: zf1-3 binding site oligo (23 bp containing 13 bp site) (dsDNA)
DNA 1: TGGATGGGAGACC
DNA 2: GGTCTCCCATCCA
Take B1: the binding result with TFIIIA zf1-3 was “binds”.
In turn, CCTCGCCGCCGCGGGTTTTCCCGCGCCCCCGAGG (structured_DNA) [GCG-GCG-GCG hairpin] showed a Kd in the data set with (C7 finger)x3 of 9 nM.

B2: C7 site probe (dsDNA)
DNA 1: GATGTATGTAGCGTGGGCGTAAGTAATGC
DNA 2: GCATTACTTACGCCCACGCTACATACATC
The molecule B2 displayed a Kd with MBP-C7 of 31.8 nM.
With CCTGCGTGGGCGCCCTTTTGGGCGCCCACGCAGG (structured_DNA) [Z268N consensus hairpin], in the data set with Zif268 variant C7, the binding signal came out at 13 fold tighter than Zif268. Besides, the Kd with Zif268 fingers 1-3 was 6.5 nM.

Source of the values: US6140466, “Zinc finger protein derivatives and methods therefor” (The Scripps Research Institute).
